Values of other authors, collected in patent US6726924B2, “Oral liposomal delivery system” (Biozone Laboratories, Inc., priority 1997, dated 2004).

Details: oral; free vs liposomes with ceramides; Regnault et al. 1996

Which bioavailability does the source give for superoxide dismutase here?
The bioavailability was 14%.
